Consider 20 sequences from the supplement of paper PMC9170038.

The subject of the data set is MS2 coat protein. Kind of data set: apparent KD of MS2 coat protein; designed switch direction (-1 OFF switch, 1 ON switch): 1; higher = weaker reporter binding. A digest of the protocol:
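Normalised cluster fluorescence was curve-fitted, and each design's median over clusters is its apparent KD. Before this, SNAP-549-labelled MS2 coat protein was titrated from 0.7 or 1.5 nM, doubling to 3 µM, over RNA switches transcribed on Illumina chips by stalled E. coli RNA polymerase. Titrations had no input, 200 uM small-molecule ligand, or an oligonucleotide input, and steps lasted 0.8–1.5 h (lowest) to 10–20 min (highest).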

[1] abbreviates: input ligand: microRNA oligo, concentration not stated.
[2] abbreviates: Eterna round: R95, input ligand: FMN 200 uM.
Setting [3] is: Eterna round: R95, input ligand: microRNA oligo, concentration not stated.
Where [4] appears, read: Eterna round: R95, input ligand: none.

Turning to “CCAUAACGGUGAGGAUAUUGUUGCGAUAAGUGACGAGAAGGCAUUCAUGUGAAAUAAACAUACAUGAGGAUCACCCAUGUUGUA [Omei SS(NG)1 Bv3] (Eterna round: R96, puzzle: Same State NG 1)”, the “apparent KD of MS2 coat protein” value by setting is: (input ligand: FMN 200 uM) 22.6 nM; under setting [1], 40.8 nM; (input ligand: none) 50.2 nM.

Take “UUAUACUAGAGAGGAUAUGCAGAGGAUCACCCUGCAGAAGGCUCGUUAGAGAGGAUAUGCAGAGGAUCACCCUGCAGAAGGCUC [pwkr ssNG DX.23] (Eterna round: R96, puzzle: Same State NG 1)”: the “apparent KD of MS2 coat protein” value by setting is: (input ligand: FMN 200 uM) 17.2 nM; under setting [1], 8.62 nM; (input ligand: none) 15.2 nM.

As to “UCUUGGUUUUUGCUCGUUUUUUGUGUUGAACAUGAGGAUCACCCAUGUAUUGUACGGUCCGAUUUGAUAAUGGUCCG [JMF 21] (puzzle: Sensor for hsa-mir-208a)”, the “apparent KD of MS2 coat protein” value stood at 25.8 nM under setting [2], 14.8 nM under setting [3] and 27 nM under setting [4].

As for “GUUACAUGAGGAUCACCCAUGUAUGUGUGGGAGUAAGUGUCUUAGGAUAUCUAGCAUUUAAUUUAAGAGAAGGAAGAUUGUUGU [JMF's solution 51] (Eterna round: R96, puzzle: Same State NG 3)”, the “apparent KD of MS2 coat protein” value stood at 79.7 nM (input ligand: FMN 200 uM), 59.9 nM under setting [1] and 84.1 nM (input ligand: none).

In the case of “GUAAAACAUGAGGAUCACCCAUGUAAUAUAAUGGGAGGAUAUCUGAUUUAAUUAAAUUUAAGAGAAGGCCUAAAUG [Mat - Same State 1 - Mod of Eli - D56] (puzzle: Same State 1)”, the “apparent KD of MS2 coat protein” value was determined as 32.1 nM under setting [2], 107 nM under setting [3] and 123 nM under setting [4].

With “UAGAGAGGAAGCGAGGAUAUCGUGUUAGGUACAUGAGGAUCACCCAUGUUGUAGGUAGAGGUAGGCGAGAAGGCGCAGGAGAGGU [JR_SS2_Sub094] (puzzle: Same State 2)”, the “apparent KD of MS2 coat protein” value reads like this: under setting [2], 33.4 nM; under setting [3], 38.8 nM; under setting [4], 41.4 nM.

In the case of “UGUCCAGCCUGAGCUGGACAAAAGCAUGUACAUGAGGAUCACCCAUGUUCAUGUACAAGCUUUUUGCUCGUCUUACG [salish99_208a_r3_082] (puzzle: Sensor for hsa-mir-208a)”, the “apparent KD of MS2 coat protein” value by setting is: under setting [2], 763 nM; under setting [3], 15 nM; under setting [4], 690 nM.

On to “AGCGAGAUAGGCGAGGAUAUGCUUUUUUGCACAUGAGGAUCACCCAUGUCUUUGUUUUUUGUUUUGCAGAAGGCGCAUUCUCUUU [ak unbound state multiloop] (Eterna round: R96, puzzle: Same State 2)”, for which the “apparent KD of MS2 coat protein” value was 46.1 nM (input ligand: FMN 200 uM), 15.8 nM under setting [1] and 26.1 nM (input ligand: none).

Turning to “GCCAUCGCAUGAGGAUAUGGCACCGAAACGGUGCCAGAAGGCAUGUCGUAAGACAUGAGGAUCACCCAUGUAGUUAAGAUGGCA [Mat - Same State NG 1 - JL mod - D91] (Eterna round: R96, puzzle: Same State NG 1)”, the “apparent KD of MS2 coat protein” value reads like this: (input ligand: FMN 200 uM) 215 nM; under setting [1], 229 nM; (input ligand: none) 907 nM.

Regarding “AUUAACUUGAGAGGAUAUGUAGAGGAUCACCCUACAGAAGGCUCGUUAGAGAGGAUAUGUAGAGGAUCACCCUACAGAAGGCUC [pwkr ssNG DX.9] (Eterna round: R96, puzzle: Same State NG 1)”, the “apparent KD of MS2 coat protein” value was determined as 95.1 nM (input ligand: FMN 200 uM), 82.4 nM under setting [1] and 88.7 nM (input ligand: none).

For “AAAAAACAUGAGGAUCACCCAUGUCAAAAGACAUGAGGAUAUGUGCAAAUAAAAUAAGAAACAGAAGGCAUGAAAA [salish99_ss1_r3_102] (puzzle: Same State 1)”, the “apparent KD of MS2 coat protein” value is 69.1 nM under setting [2], 210 nM under setting [3] and 229 nM under setting [4].

For “CAUAAACCUCACGAGGAUAUCCACAGAUAGACAUGAGGAUCACCCAUGUCGACUUUCGAACUGAGGGAGAAGGCGUAGGUACUAA [Gebiorge] (puzzle: Same State 2)”, the “apparent KD of MS2 coat protein” value worked out at 12.1 nM under setting [2], 13.1 nM under setting [3] and 13.4 nM under setting [4].

Consider “GGGCCAGCCUGUGCUGGGCCUUCGCAUGCACAUGAGGAUCACCCAUGUCGUGUACAUGCUUUUUGCUCGUCUUUAAA [Photon Torp-10] (puzzle: Sensor for hsa-mir-208a)”, for which the “apparent KD of MS2 coat protein” value came to 40.9 nM under setting [2], 12.6 nM under setting [3] and 42.7 nM under setting [4].

Consider “GGAAGGAAGUCAGGAUAUGAAUGGAAAGUACAUGAGGAUCACCCAUGUUAUGGAGGAAGGAAACGUUAGAAGGGAUAAGGAAGG [AK SSNG2-V2-1.1] (Eterna round: R96, puzzle: Same State NG 2)”, for which the “apparent KD of MS2 coat protein” value was 67.8 nM (input ligand: FMN 200 uM), 45.2 nM under setting [1] and 63.7 nM (input ligand: none).

For the sequence “UCAAUCAUGUAAGGAUAUGCAGCCGAAACGGCUGCAGAAGGUACUAUAAUUACAUGAGGAUCACCCAUGUUAUAAAAUUUAAAU [Mat - Same State NG 1 - JL mod - D68] (Eterna round: R96, puzzle: Same State NG 1)”, the “apparent KD of MS2 coat protein” value runs as follows: (input ligand: FMN 200 uM) 35.5 nM; under setting [1], 46 nM; (input ligand: none) 123 nM.

As to “GGAGGACAUGAGGAUCACCCAUGUAGAUGGGCGCUAGGAUAUGCGAGAGGGUAGAGAGAAGCAGAAGGAGUGGAUU [JR_SS1_Sub041] (puzzle: Same State 1)”, the “apparent KD of MS2 coat protein” value was 156 nM under setting [2], 259 nM under setting [3] and 214 nM under setting [4].

In the case of “CAUCUCCCUUUUACAUGAGGAUCACCCAUGUUUUUAUAAUGAGAGGAUAUCGUAUUUAGAAACAUCGAGAAGGCUCAAUUGUAU [JR_SSNG3_Sub071] (Eterna round: R96, puzzle: Same State NG 3)”, the “apparent KD of MS2 coat protein” value reads like this: (input ligand: FMN 200 uM) 131 nM; under setting [1], 93 nM; (input ligand: none) 153 nM.

“UCGGGCGUACUUGCUGACAUGAGGAUCACCCAUGUGCUUGGGAAGGAUAUGGUUCCGUUUCGGUUCCAGAAGGUCCUGGCUGCU [salish99_SSNG3_r04_316] (Eterna round: R96, puzzle: Same State NG 3)”: the “apparent KD of MS2 coat protein” value was found to be 116 nM (input ligand: FMN 200 uM), 47 nM under setting [1] and 79.8 nM (input ligand: none).

On to “GCGCACGAUCACAGUAACAUGAGGAUCACCCAUGUGUUACCGGAGGAUAUGCAAGCCCAUGCAGCGCAGAAGGCCGGGAACGUA [Eternabot solution 24] (Eterna round: R96, puzzle: Same State NG 3)”, for which the “apparent KD of MS2 coat protein” value runs as follows: (input ligand: FMN 200 uM) 151 nM; under setting [1], 131 nM; (input ligand: none) 147 nM.

As to “UUAAUUAGUUGAGGAUAUUAUGUCGACUGAGACGACAUGAGGAUCACCCAUGUGAGAAGUGGUUUUAAGAAGGCAACAUUCAUA [JR_SSNG2_Sub088] (Eterna round: R96, puzzle: Same State NG 2)”, the “apparent KD of MS2 coat protein” value (input ligand: FMN 200 uM) came to 55.9 nM, the “apparent KD of MS2 coat protein” value under setting [1] was 83 nM and the “apparent KD of MS2 coat protein” value (input ligand: none) is 141 nM.
